In the supplement of paper PMC9732359:
± gives the uncertainty stated by the source.

Assay: protein stability index of a GFP-peptide fusion (yeast GPS) (PSI 1-4); higher = more stable; sorted into four equal gates, so the index is relative within each strain
Outline: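 Plasmids isolated from each sorting gate were PCR-amplified and Illumina-sequenced, and barcodes assigned the reads to strains. The gates, four of equal size, were set by GFP/Cherry fluorescence ratio on mid-log cultures in leucine-free medium. These cultures were yeast carrying a pooled library of tiled 17-residue yeast protein peptides fused downstream of GFP on a plasmid that also expresses Cherry. The protein stability index is the sum of every gate's read frequency times its gate number.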

SSRFKHRQEIFKDSPMD [GAL11]
protein stability index (doa10∆): 2.71 ± 0.078
protein stability index (pdr5∆): 3.11 ± 0.066
protein stability index (san1∆): 3.03 ± 0.059
protein stability index (ubr1∆): 3.01 ± 0.076

SEEERKSSPISNEAAKP [YOR098C/NUP1]
protein stability index (doa10∆): 2.94 ± 0.099
protein stability index (pdr5∆): 2.97 ± 0.099
protein stability index (san1∆): 3.07 ± 0.069
protein stability index (ubr1∆): 3.21 ± 0.071

DAISQVINIAKAHPNFP [FAS1]
protein stability index (doa10∆): 1.41 ± 0.076
protein stability index (pdr5∆): 2.65 ± 0.095
protein stability index (san1∆): 2.03 ± 0.26
protein stability index (ubr1∆): 2.91 ± 0.082

GKYVIAGHVSGVITVHN [RPN14]
protein stability index (doa10∆): 1.55 ± 0.098
protein stability index (pdr5∆): 2.48 ± 0.092
protein stability index (san1∆): 2.48 ± 0.1
protein stability index (ubr1∆): 3.23 ± 0.038

ARFRSIHILKVAEIEKT [RPL20A]
protein stability index (doa10∆): 1.2 ± 0.067
protein stability index (pdr5∆): 1.16 ± 0.051
protein stability index (san1∆): 1.14 ± 0.088
protein stability index (ubr1∆): 1.08 ± 0.048

TGKDCVAIACDLRLGSQ [PUP3]
protein stability index (doa10∆): 1.38 ± 0.088
protein stability index (pdr5∆): 1.48 ± 0.092
protein stability index (san1∆): 2.32 ± 0.064
protein stability index (ubr1∆): 2.7 ± 0.061

SKKKKNIKKKDTKDALS [RPC53]
protein stability index (doa10∆): 3.3 ± 0.17
protein stability index (pdr5∆): 3.5 ± 0.14
protein stability index (san1∆): 3.21 ± 0.089
protein stability index (ubr1∆): 3.3 ± 0.21

EFLYPHLNFPNVKFLRI [SNF12]
protein stability index (doa10∆): 2.21 ± 0.19
protein stability index (pdr5∆): 2.67 ± 0.27
protein stability index (ubr1∆): 3.15 ± 0.1

GKLVESEDSMNVQLRDV [SMD3]
protein stability index (doa10∆): 3.26 ± 0.14
protein stability index (pdr5∆): 3.32 ± 0.1
protein stability index (san1∆): 3.33 ± 0.065
protein stability index (ubr1∆): 3.26 ± 0.041

RAPKVIHGQDFQFFPKE [ISW2]
protein stability index (doa10∆): 2.56 ± 0.068
protein stability index (pdr5∆): 2.47 ± 0.069
protein stability index (san1∆): 3.17 ± 0.065
protein stability index (ubr1∆): 2.83 ± 0.052

DPLYDITKVPALEFLNT [REC8]
protein stability index (doa10∆): 2.32 ± 0.069
protein stability index (pdr5∆): 2.72 ± 0.093
protein stability index (san1∆): 2.61 ± 0.11
protein stability index (ubr1∆): 2.62 ± 0.083

TSLPDWCQEAFPSSETT [BRR2]
protein stability index (doa10∆): 2.93 ± 0.075
protein stability index (pdr5∆): 3.08 ± 0.099
protein stability index (san1∆): 3.25 ± 0.072
protein stability index (ubr1∆): 3.01 ± 0.15

QFSLPNGDNSTTTNTDQ [SNF12]
protein stability index (doa10∆): 2.47 ± 0.047
protein stability index (pdr5∆): 2.2 ± 0.055
protein stability index (san1∆): 2.318 ± 0.014
protein stability index (ubr1∆): 2.31 ± 0.05

MANTGCLSPGAFLSKVP [SRP14]
protein stability index (doa10∆): 2.56 ± 0.076
protein stability index (pdr5∆): 2.3 ± 0.091
protein stability index (san1∆): 2.74 ± 0.14
protein stability index (ubr1∆): 2.52 ± 0.061

VEELMKKRRGSRIYKTI [SNU114]
protein stability index (doa10∆): 1.86 ± 0.048
protein stability index (pdr5∆): 1.75 ± 0.053
protein stability index (san1∆): 1.62 ± 0.088
protein stability index (ubr1∆): 1.83 ± 0.053

SDEAIIPVNKRRGAHGS [SIR3]
protein stability index (doa10∆): 3.03 ± 0.15
protein stability index (pdr5∆): 3.13 ± 0.13
protein stability index (san1∆): 3.04 ± 0.13
protein stability index (ubr1∆): 2.93 ± 0.18

YLKNVLFAFNGVARNFH [SIN4]
protein stability index (doa10∆): 2.55 ± 0.082
protein stability index (pdr5∆): 2 ± 0.056
protein stability index (san1∆): 1.79 ± 0.064
protein stability index (ubr1∆): 2.15 ± 0.063

YGPSFTKRESLNARMFL [SIR2]
protein stability index (doa10∆): 1.85 ± 0.068
protein stability index (pdr5∆): 2.42 ± 0.049
protein stability index (san1∆): 2.22 ± 0.08
protein stability index (ubr1∆): 1.65 ± 0.036

EDEGTLNVAEIITSGRD [ARP9]
protein stability index (doa10∆): 3.27 ± 0.22
protein stability index (pdr5∆): 3.21 ± 0.15
protein stability index (san1∆): 3.24 ± 0.079
protein stability index (ubr1∆): 3.29 ± 0.15

NSFTKGNVFSPIDNNII [SNU114]
protein stability index (doa10∆): 2.98 ± 0.093
protein stability index (pdr5∆): 2.92 ± 0.074
protein stability index (san1∆): 2.83 ± 0.081
protein stability index (ubr1∆): 2.95 ± 0.058

SKFTKIPPTFDKGAVGP [MED4]
protein stability index (doa10∆): 3.17 ± 0.072
protein stability index (pdr5∆): 3.29 ± 0.079
protein stability index (san1∆): 3.33 ± 0.076
protein stability index (ubr1∆): 3.08 ± 0.11

VQPPLDKFPYKKLELPK [SWP82]
protein stability index (doa10∆): 2.79 ± 0.074
protein stability index (pdr5∆): 2.11 ± 0.055
protein stability index (san1∆): 2.73 ± 0.061
protein stability index (ubr1∆): 2.93 ± 0.055

ANLVNKESDLLEETRTT [BRN1]
protein stability index (doa10∆): 3.06 ± 0.18
protein stability index (pdr5∆): 3.51 ± 0.17
protein stability index (san1∆): 3.31 ± 0.098
protein stability index (ubr1∆): 3.26 ± 0.077

ANTPVLRKSELEYYAML [RPL30]
protein stability index (doa10∆): 2.57 ± 0.096
protein stability index (pdr5∆): 2.99 ± 0.093
protein stability index (san1∆): 2.23 ± 0.095
protein stability index (ubr1∆): 2.81 ± 0.076

GKSTADVKSSDSLKLNS [YJL041W/NSP1]
protein stability index (doa10∆): 3.23 ± 0.14
protein stability index (pdr5∆): 3.35 ± 0.12
protein stability index (san1∆): 2.96 ± 0.17
protein stability index (ubr1∆): 3.32 ± 0.14

PRMVRDVFRLARENAPS [RPT3]
protein stability index (doa10∆): 2.62 ± 0.17
protein stability index (pdr5∆): 2.88 ± 0.059
protein stability index (san1∆): 2.86 ± 0.16
protein stability index (ubr1∆): 2.89 ± 0.097

LEETRTTIGDTTDKNTT [BRN1]
protein stability index (doa10∆): 3.2 ± 0.071
protein stability index (pdr5∆): 3.27 ± 0.059
protein stability index (san1∆): 3.04 ± 0.055
protein stability index (ubr1∆): 3.17 ± 0.057

TIGKRRTTTNTTAEPKA [TAF14]
protein stability index (doa10∆): 3.07 ± 0.064
protein stability index (pdr5∆): 3.26 ± 0.042
protein stability index (san1∆): 3.15 ± 0.045
protein stability index (ubr1∆): 3.2 ± 0.05

SKYFIIDSFFLYVLPSF [YMR129W/POM152]
protein stability index (doa10∆): 1.55 ± 0.045
protein stability index (pdr5∆): 1.65 ± 0.035
protein stability index (san1∆): 1.75 ± 0.06
protein stability index (ubr1∆): 1.23 ± 0.028

LPYNWDALEMQWRYLYD [ARP7]
protein stability index (doa10∆): 2.1 ± 0.065
protein stability index (pdr5∆): 2.1 ± 0.073
protein stability index (san1∆): 2.44 ± 0.11
protein stability index (ubr1∆): 2.19 ± 0.068

IVTEQPSAEIREAYIEN [SWP82]
protein stability index (doa10∆): 2.47 ± 0.062
protein stability index (pdr5∆): 2.88 ± 0.062
protein stability index (san1∆): 2.74 ± 0.073
protein stability index (ubr1∆): 2.2 ± 0.065

GVAASQGSMSERPPYIL [SIR2]
protein stability index (doa10∆): 2.75 ± 0.11
protein stability index (pdr5∆): 3.08 ± 0.089
protein stability index (san1∆): 2.72 ± 0.097
protein stability index (ubr1∆): 3.16 ± 0.085

CQYMVACVPLLPPPEDV [RPN1]
protein stability index (doa10∆): 2.03 ± 0.046
protein stability index (pdr5∆): 2.57 ± 0.073
protein stability index (san1∆): 2.65 ± 0.048
protein stability index (ubr1∆): 2.76 ± 0.053

EREIMNDHSKSANPKKT [SWI3]
protein stability index (doa10∆): 3.29 ± 0.077
protein stability index (pdr5∆): 3.3 ± 0.084
protein stability index (san1∆): 3.3 ± 0.16
protein stability index (ubr1∆): 3.31 ± 0.065

MVKLIVMLCTLTGYQNN [YJL039C/NUP192]
protein stability index (doa10∆): 1.9 ± 0.12
protein stability index (pdr5∆): 1.52 ± 0.075
protein stability index (san1∆): 1.99 ± 0.11
protein stability index (ubr1∆): 1.5 ± 0.095

LATLHYQKKQYKDSLAL [RPN6]
protein stability index (doa10∆): 1.91 ± 0.28
protein stability index (pdr5∆): 1.47 ± 0.17
protein stability index (san1∆): 2.62 ± 0.19
protein stability index (ubr1∆): 2.14 ± 0.23

EIDHVEYYVMMDFANLW [SRB8]
protein stability index (doa10∆): 2.98 ± 0.067
protein stability index (pdr5∆): 2.69 ± 0.054
protein stability index (san1∆): 2.81 ± 0.056
protein stability index (ubr1∆): 2.92 ± 0.036

AMEKYLLSKSKIGEEDY [MTW1]
protein stability index (doa10∆): 2.35 ± 0.085
protein stability index (pdr5∆): 2.73 ± 0.083
protein stability index (san1∆): 2.6 ± 0.1
protein stability index (ubr1∆): 2.73 ± 0.042

FAESPFFDKTSNNQVIK [MED6]
protein stability index (doa10∆): 3.49 ± 0.081
protein stability index (pdr5∆): 2.92 ± 0.096
protein stability index (san1∆): 2.71 ± 0.076
protein stability index (ubr1∆): 2.96 ± 0.069

NPPSYQSSEDVITIKSR [RPB7]
protein stability index (doa10∆): 2.78 ± 0.17
protein stability index (san1∆): 2.6 ± 0.12
protein stability index (ubr1∆): 2.25 ± 0.28

NGGNSVITLAEYEKRNH [SRP68]
protein stability index (doa10∆): 3.57 ± 0.12
protein stability index (pdr5∆): 3.28 ± 0.14
protein stability index (san1∆): 3.44 ± 0.1
protein stability index (ubr1∆): 3.38 ± 0.12

ISFVLGVRSNHLRSNIL [SMC1]
protein stability index (doa10∆): 2.09 ± 0.061
protein stability index (pdr5∆): 2.16 ± 0.088
protein stability index (san1∆): 2.08 ± 0.097
protein stability index (ubr1∆): 2.47 ± 0.064

DKIAVAVAGLTADAEIL [PRE9]
protein stability index (doa10∆): 1.5 ± 0.098
protein stability index (pdr5∆): 1.65 ± 0.077
protein stability index (san1∆): 1.25 ± 0.21
protein stability index (ubr1∆): 2.1 ± 0.075

SEKGLLSATQFTQPALT [FAS1]
protein stability index (doa10∆): 2.44 ± 0.061
protein stability index (pdr5∆): 2.65 ± 0.047
protein stability index (san1∆): 2.73 ± 0.039
protein stability index (ubr1∆): 2.57 ± 0.038

SASNTAKSTPNTNPSPL [GAL11]
protein stability index (doa10∆): 2.67 ± 0.044
protein stability index (pdr5∆): 2.87 ± 0.042
protein stability index (san1∆): 2.65 ± 0.038
protein stability index (ubr1∆): 2.9 ± 0.032

NDIPLGSGQPDNDTVVT [SRB8]
protein stability index (doa10∆): 3.3 ± 0.12
protein stability index (pdr5∆): 3.18 ± 0.16
protein stability index (san1∆): 2.51 ± 0.14
protein stability index (ubr1∆): 3.12 ± 0.28

QQQQQQHIYPSSTPGVA [GAL11]
protein stability index (doa10∆): 2.728 ± 0.022
protein stability index (pdr5∆): 2.78 ± 0.029
protein stability index (san1∆): 2.664 ± 0.023
protein stability index (ubr1∆): 2.664 ± 0.025

SALCILKEQELVLYDAE [BRR2]
protein stability index (doa10∆): 2.47 ± 0.16
protein stability index (pdr5∆): 2.72 ± 0.12
protein stability index (san1∆): 2.25 ± 0.11
protein stability index (ubr1∆): 2.52 ± 0.1

YNVKNIIQGRKNFDMLN [PCI8]
protein stability index (doa10∆): 2.51 ± 0.035
protein stability index (pdr5∆): 2.52 ± 0.037
protein stability index (san1∆): 2.72 ± 0.039
protein stability index (ubr1∆): 2.58 ± 0.028

LPGDMLAVCDELGNMTM [SIN4]
protein stability index (doa10∆): 2.76 ± 0.071
protein stability index (pdr5∆): 2.77 ± 0.072
protein stability index (san1∆): 2.78 ± 0.089
protein stability index (ubr1∆): 2.66 ± 0.085

RAVFLFRCKETHSYNFM [RPC82]
protein stability index (doa10∆): 2.19 ± 0.058
protein stability index (pdr5∆): 2.02 ± 0.084
protein stability index (san1∆): 1.98 ± 0.091
protein stability index (ubr1∆): 2.47 ± 0.063

ISEEETTVKPLFQNVPE [YAR002W/NUP60]
protein stability index (doa10∆): 3.01 ± 0.069
protein stability index (pdr5∆): 3.25 ± 0.068
protein stability index (san1∆): 3.23 ± 0.043
protein stability index (ubr1∆): 3.01 ± 0.058

QQRKQKKNRDKKIFGTG [RPS24A]
protein stability index (doa10∆): 3.17 ± 0.093
protein stability index (pdr5∆): 3.14 ± 0.055
protein stability index (san1∆): 3.25 ± 0.035
protein stability index (ubr1∆): 3.06 ± 0.067
